The record followed here is publication PMC6237740.

Common to all, as to experiment: fluorescence anisotropy competition
(Polarisation of emitted light reports the rotation of a fluorescent probe.)

For one data set, the system named is PU.1/Ets-1 H3 chimera. Particulars: 10 mM TrisHCl pH 7.4, 0.15 M NaCl, 0.1 mg/ml BSA, betaine to set osmolality (0.3 osm without stress); Cy3-DNA probe displaced by unlabeled DNA; binding ….
Another data set deals with PU.1/Ets-1 loop chimera. The conditions noted are these: 10 mM TrisHCl pH 7.4, 0.15 M NaCl, 0.1 mg/ml BSA, betaine to set osmolality (0.3 osm without stress); Cy3-DNA probe displaced by unlabeled DNA; binding ….
Data set [1] deals with Ets-1 ETS domain WT (Mus musculus). The conditions noted are these: normo-osmotic; 10 mM TrisHCl pH 7.4, 0.15 M NaCl, 0.1 mg/ml BSA, betaine to set osmolality (0.3 osm without stress); Cy3-DNA probe displaced by unlabeled DNA; binding ….
In data set [2] the test system is PU.1 ETS domain WT (PU.1ΔN167). The conditions noted are these: 10 mM TrisHCl pH 7.4, 0.15 M NaCl, 0.1 mg/ml BSA, betaine to set osmolality (0.3 osm without stress), Cy3-DNA probe displaced by unlabeled DNA.
The next data set concerns PU.1/Ets-1 S3 chimera. The conditions noted are these: 0.1 mg/ml BSA, betaine to set osmolality (0.3 osm without stress), Cy3-DNA probe displaced by unlabeled DNA.
Another data set has as its system PU.1/Ets-1 H2 chimera. Particulars: 10 mM TrisHCl pH 7.4, 0.15 M NaCl, 0.1 mg/ml BSA, betaine to set osmolality (0.3 osm without stress); Cy3-DNA probe displaced by unlabeled DNA; binding ….
The test system of the next data set is PU.1/Ets-1 wing chimera. Particulars: 10 mM TrisHCl pH 7.4, 0.15 M NaCl, 0.1 mg/ml BSA, betaine to set osmolality (0.3 osm without stress); Cy3-DNA probe displaced by unlabeled DNA; binding ….

By Kd is commonly meant the concentration at which binding is half-saturated. Turning to “AGC high-affinity PU.1 site, 23-bp duplex”, the dissociation constant Kd stood at 22 nM with PU.1/Ets-1 H3 chimera; 1.3 nM in the data set on PU.1/Ets-1 loop chimera; 0.6 nM in data set [1]; 0.34 nM in data set [2] (binding …); 0.49 nM in the data set with PU.1/Ets-1 S3 chimera (10 mM TrisHCl pH 7.4, 0.15 M NaCl, binding …); 0.8 nM in the data set on PU.1/Ets-1 H2 chimera. Besides, the Kd in the data set with PU.1/Ets-1 wing chimera worked out at 1.6 nM.

Substance SC1 optimal Ets-1 site registered a Kd in data set [1] of 0.17 nM.

On to low-affinity PU.1 site, 23-bp duplex, for which the binding signal in data set [2] (may replot earlier WT data, scale: fold affinity vs S3 chimera on the same low-affinity DNA) was 0.2; in the data set with PU.1/Ets-1 S3 chimera (weaker than S3 chimera on N1, 10 mM TrisHCl pH 7.4, 0.15 M NaCl, scale: fold stronger than WT PU.1 on the same low-affinity DNA), 5.
